Source: PMC2809820

Key:
Ets-1 (rhEts-1) [1] = molecular target: T1, Ets-1 (rhEts-1) (human, UniProt P14921 1-441); experiment: competition
T1 sequence: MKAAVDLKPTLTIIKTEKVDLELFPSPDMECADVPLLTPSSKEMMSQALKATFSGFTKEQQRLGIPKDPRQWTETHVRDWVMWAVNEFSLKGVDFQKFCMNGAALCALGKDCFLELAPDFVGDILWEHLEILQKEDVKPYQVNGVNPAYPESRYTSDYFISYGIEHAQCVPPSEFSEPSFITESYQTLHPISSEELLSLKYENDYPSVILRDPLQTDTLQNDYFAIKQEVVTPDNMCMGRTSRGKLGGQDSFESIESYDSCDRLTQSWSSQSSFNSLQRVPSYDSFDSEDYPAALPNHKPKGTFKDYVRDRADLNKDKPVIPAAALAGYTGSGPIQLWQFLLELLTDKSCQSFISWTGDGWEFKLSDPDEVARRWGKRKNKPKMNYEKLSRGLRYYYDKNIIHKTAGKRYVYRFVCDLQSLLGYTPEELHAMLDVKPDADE

Ets-1 (rhEts-1) [2] = molecular target: T1, Ets-1 (rhEts-1); experiment: competition; remark: listed apart in the source
Ets-1 (rhEts-1) [3] = molecular target: T1, Ets-1 (rhEts-1); experiment: EMSA

B1: IL13P (dsDNA)
DNA 1: GTTCGGGGAGGAAGTGGGTAG
DNA 2: CTACCCACTTCCTCCCCGAAC
B1: binds (Ets-1 (rhEts-1) [1]).

B2: IL4P.1 (dsDNA)
DNA 1: GATTTCACAGGAACATTTTAC
DNA 2: GTAAAATGTTCCTGTGAAATC
B2: no binding (Ets-1 (rhEts-1) [2]).

B3: RHS5 (dsDNA)
DNA 1: GGTAACACAGGAAGTCAGCAG
DNA 2: CTGCTGACTTCCTGTGTTACC
B3: binds (Ets-1 (rhEts-1) [1]).

B4: IL4P.2 (dsDNA)
DNA 1: TTTTCTCCTGGAAGAGAGGTG
DNA 2: CACCTCTCTTCCAGGAGAAAA
B4: no binding (Ets-1 (rhEts-1) [2]).

B5: SC1_ETS1 (dsDNA)
DNA 1: CGGCCAAGCCGGAAGTGAGTGCC
DNA 2: GGCACTCACTTCCGGCTTGGCCG
B5: binds (Ets-1 (rhEts-1) [3]).
